Reference: patent publication US20210380707A1

Key:
[1] = target: recombinant human CD70 tagged with mouse IgG2a Fc (AcroBiosystems Cat#CDL-H525a) (human; mouse) (UniProt P32970); assay: indirect ELISA, hybridoma supernatant, coated antigen A at 1 µg/ml
[2] = target: Mouse IgG2a protein (AcroBiosystems Cat# IGA-M5207) (mouse) [IgG part: P01863]; assay: indirect ELISA, hybridoma supernatant, coated antigen B at 1 µg/ml
Chain of Mouse IgG2a protein (AcroBiosystems Cat# IGA-M5207) (mouse) [IgG part: P01863] (P01863 98-330): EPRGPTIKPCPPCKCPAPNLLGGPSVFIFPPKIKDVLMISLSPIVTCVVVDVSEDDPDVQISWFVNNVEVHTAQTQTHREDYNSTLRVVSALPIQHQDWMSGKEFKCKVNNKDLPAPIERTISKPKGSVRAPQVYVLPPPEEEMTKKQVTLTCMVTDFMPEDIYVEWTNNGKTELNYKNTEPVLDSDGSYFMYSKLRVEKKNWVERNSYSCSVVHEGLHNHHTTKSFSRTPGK

Chain of recombinant human CD70 tagged with mouse IgG2a Fc (AcroBiosystems Cat#CDL-H525a) (human; mouse) (P32970 39-193): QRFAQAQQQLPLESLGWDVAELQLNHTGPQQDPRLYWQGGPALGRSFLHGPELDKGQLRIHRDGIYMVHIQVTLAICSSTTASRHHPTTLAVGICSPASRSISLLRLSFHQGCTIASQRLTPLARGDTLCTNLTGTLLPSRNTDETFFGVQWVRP

| Binder | OD 450 [1] [OD 450] | OD 450 [2] [OD 450] |
| --- | --- | --- |
| 11E12E8 (antibody, IgG1, V domains shown) VH: DVQLVESGGGLVQPGGSRKLSCAASGFTFSRFGMNWVRQAPEKGLEWVAYISSGSGDIYYADTVKGRFTISRDNPKNTLFLQMTSLRSEDTAMYYCAVTWFAYWGQGTLVTVSA VL: QAVVTQEPALTTSPGETVTLTCRSSTGAVTTSNYANWVQEKPDHLFTGLIGGTNNRAPGVPARFSGSLIGDKAALTITGAQTEDEAIYFCVLWYSNHFIFGSGTKVTVL | 1.01 | 0.107 |
| 4E6G9 (antibody, V domains shown) VH: QIQLVQSGPELKKAGETVKISCKASGYTFAAYSMHWVKQAPGKGLKWMGWINTETGEPTYADDFKGRFAFSLETSASTAYLQINNLKNEDTATYFCTRDDYDGGRFSYWYFAVWGAGTTVTVSS VL: DIQMTQSPSSLSASLGGKVTITCKASQDINKYIAWYQHRPGKGPRLLIRYTSTLQPGIPSRFSGSGSGRDYSFSINNLEPEDIATYYCLQYDNLLTFGGGTKLEIK | 2.51 | 0.121 |
| 3H11D12E7 (antibody, V domains shown) VH: QIQLVQSGPELKKPGETVKISCKASGYTFTDYSMHWVKQAPGKGLKWMGWINTETGEPTYADDFKGRFAFSLETSASTAYLQINNLKNDDTATYFCARSFYRYDWYFDVWGAGTTVTVSS VL: QIVLTQSPAIMSASPGEKVTITCSASSSVSFMHWFQQKPGTSPKLWIYSTSNLASGVPARFSGSGSGTSYSLTISRMEAEDAATYYCQQRTSFPPTFGGGTNLEIK | 1.87 | 0.115 |

Next, values leading:

| OD 450 [1] [OD 450] | OD 450 [2] [OD 450] | Binder |
| --- | --- | --- |
| 1.97 | 0.146 | 18F8A8 (antibody, IgG1, V domains shown) VH: QVTLKESGPGILQPSQTLSLTCSFSGFSLSTSNMGVAWIRQPLGKGLEWLLYILWNDTKYYNPALKSRLSISKDTYNNQVFLKIVNVDTADTATYYCARIRRDYALDYWGQGTSVTVSS VL: DIVMSQSPSSLAVSVGEKVTMNCKSSQSLLYSNNQKNYLAWYQQKPGQSPKLLIYWASTRESGVPDRFTGSGSGTDFTLTISSVKAEDLAVYYCQQYYIYPLAFGGGTKLEIK |
| 1.85 | 0.134 | 19H7E4 (antibody, IgG1, V domains shown) VH: QVTLKESGPGILQPSQTLSLTCSFSGFSLSTSNVGVGWIRQPSGKGLEWLLHILWNDGKYYNPALKSRLTISKDTSTNQVFLKIADVDTADSATYYCARLRRDYGMDYWGQGTSVTVSS VL: DIVMSQSPSSLAVSVGEKVTMSCKSSQSLLYSYNQKNYLAWYQQKPGQSPKLLIYWASTRESGVPDRFTGSGSGTDFTLTISSVKAEDLAVYYCQQYYTYPYAFGGGTKLEIK |
| 2.12 | 0.154 | 16D7C8 (antibody, IgG3, V domains shown) VH: QVQLQQSGPELVKPGASVRISCKASGYTFTSFYIHWVKQRPGQGLEWIGWISPINININYNEKFKGKATLTADKSSSTVYMQLSSLTSEDSAVYFCEGTSENFDVWGAGTTVTVSS VL: DVLMTQIPLSLPVSLGDQASISCRSTQNIVHSNGNTYLEWYLQKPGQSPKLLIYKVSNRFSGVPDRFRGSGSGTEFTLKITRVEADDLGVYYCFQGSHVPFTFGAGTKLELK |
